According to patent US20160340412A1:

Target: C3
Experiment: analytical ultracentrifugation; self-association (dimer)

Kd: 188 µM
Substance: C3
